From patent US8088892B2, “Inhibitors of proteins from the Rho-GEF family” (Centre National de la Recherche Scientifique (C.N.R.S.), priority 2002, dated 2012)

Legend:
Kalirin GEFD2 (KalGEFD2) = molecular target: T1, Kalirin GEFD2 (KalGEFD2) (Rattus norvegicus, UniProt P97924); experiment: In vitro GEF assay on RhoA; type: biochemical; design: key to in vitro GEF assay (inhibition): +++^2 and +^2 represent respectively a full and a partial (see FIG. 3) inhibitory effect; +++^2 and +^2 represent respectively a full and a partial (see FIG. 3) inhibitory effect; −−^2 represents a lack of inhibitory effect; conditions: for Effect on Kalirin GEFD2 exchange activity on RhoA: 20-fold molar excess, KalGEFD2 1.7 μM
T1 construct: KalGEFD2, a.a; 1850-2190, 65% identity with TrioGEFD2; made in house
Method: To test the specificity of TRIAPα inhibition in vitro, exchange experiments were performed either on RhoA with different RhoA-specific GEFs: Trio GEFD2 (0.4 μM), Kalirin GEFD2 (KalGEFD2, 1.7 μM), p63RhoGEF (Souchet et al., 2002) (0.4 μM) and Lbc (amino acids 172-598; Zheng et al., 1995) (0.4 μM), or on RhoG, with the RhoG-specific GEF domain of Trio (TrioGEFD1, 0.1 μM). Exchange assays were performed with the recombinant GEFs as described in FIG. 2A. Different concentrations of RhoGEFs were used to yield a similar nucleotide exchange efficiency. For each exchange factor, three independent experiments were done in absence (black bar) or in the presence (grey bar) of a 20-fold molar excess of TRIAPα.
An in vitro guanine nucleotide exchange (GEF) assay was used to test whether the TrioGEFD2-binding aptamers could inhibit the catalytic activity of TrioGEFD2 towards RhoA. For this purpose, the aptamers TRIAPα, TRIAPβ and TRIAPγ (including the Trx gene) were excised from pEG202 as EcoRI/NotI fragments and cloned into pGEX4T1 EcoRI/NotI. The aptamers were then expressed and purified from bacteria as GST fusion proteins, using standard procedures (Smith and Johnson, 1988). GTPase-GST fusion proteins were prepared, loaded with [^3H]GDP and the guanine nucleotide release assays were performed as described (Debant et al., 1996), using recombinant GST-TrioGEFD2 (a.a. 1848-2298), TrioDH2 (a.a. 1848-2096). For each point, 0.3 μM GTPase was mixed with or without 0.4 μM GEF in presence of non-labeled GTP, and the reaction mix was filtered after 0 min and 15 mm reaction at 25° C. The catalytic activity of TrioGEFD2 was thus measured by the decrease of the GTPase-associated radioactivity. The results are expressed as the ratio “exchange after 15 min over exchange after 0 min” (% bound [^3H]GDP-RhoA). To measure the effect of the aptamers on the exchange activity, a 20-fold molar excess of GST-TRIAPs was pre-incubated with GEFD2 (or GEFD1) for 30 min on ice before the exchange assay was carried out. For each experiment, data were obtained in triplicate.
The effect of GST-TRIAPα on other Rho-GEFs that display in vitro exchange activity on RhoA was next tested to investigate whether TRIAPα inhibition was specific of TrioGEFD2. The exchange activities of the RhoGEF Lbc (a.a. 1-424, FIG. 3)(Zheng et al., 1995) and Dbl (a.a. 495-826, data not shown) were not affected by GST-TRIAPα. The effect of GST-TRIAPα on the catalytic activity of RhoGEFs that display a high sequence similarity with TrioGEFD2 was then tested: the recently identified RhoA-specific p63RhoGEF (Souchet et al., 2002) (a.a. 149-374, 71.5% identity with TrioGEFD2, 0.4 μM) and the second Rho-GEF domain of the Trio family member Kalirin (KalGEFD2, a.a. 1850-2190, 65% identity with TrioGEFD2, 1.7 μM). Different concentrations of RhoGEFs were used to yield similar nucleotide exchange […]. For each exchange factor, three independent experiments were done in absence or in the presence of a 20-fold molar excess of GST-TRIAPα. […] Thus, the in vitro inhibitory activity of TRIAPα was selective for TrioGEFD2 (see table I for summary of the tested RhoGEFs).

Full length Trio (RhoG) = molecular target: T2, Full length Trio (RhoG) (Homo sapiens, UniProt O75962); experiment: Yeast Exchange Assay (YEA), full length Trio on RhoG; type: cell-based; design: key to activation of the reporter gene by full length Trio, RhoG: “+ +” represents a slight activation of the reporter gene; “+ + + +” represents a strong activation of the reporter gene; “−” represents no activation of the reporter gene
T2 construct: Full length Trio was introduced into the YEA; expressed in transfected cells; host or cells: yeast strain TAT7
Source text: The wild type GTPase is fused to the LexA DNA binding domain (Matchmaker GAL4 two-hybrid, Clontech Laboratories, Inc., USA) and the effector to the […] (Matchmaker GAL4 two-hybrid, Clontech, Inc., USA). Under these conditions, no binding occurs in the TAT7 strain (De Toledo et al., 2000). Upon addition of a third plasmid expressing the GEF, the GTPase gets activated and binds to its effector, thus leading to the transactivation of the reporter gene LacZ.
Full length Trio was introduced into the YEA and tested for its ability to activate RhoA and RhoG respectively, in the presence or absence of TRIPα. The table below summarizes the effect of TRIPα on Trio as schematized in this Figure.
In order to better characterise the effect of TRIAPα on the Trio full length RhoGEF activity, the yeast exchange assay (YEA) was used, which is a quick and quantitative test derived from the classical two-hybrid system allowing to measure Rho-GEF activity and specificity (De Toledo et al., 2000). This functional assay is based on the fact that the GTPase binds to its effector only if it is activated by a RhoGEF. Briefly, yeasts are transformed with the GTPase fused to the LexA binding domain (LexA), and its effector to the GAL-4 Activating Domain (GAD), and with the adequate Rho-GEF partner in the yeast strain TAT7 (FIG. 7). […]

Effect on Kalirin GEFD2 exchange activity on RhoA (Kalirin GEFD2 (KalGEFD2)) | activation of the reporter gene by full length Trio, RhoG (Full length Trio (RhoG); +TRIPα (−TRIPα: + +)) | Effect on Kalirin GEFD2 exchange activity on RhoA (Kalirin GEFD2 (KalGEFD2); listed as GST-TRIAPα) | in vitro GEF assay (inhibition) (Kalirin GEFD2 (KalGEFD2); RhoGEF KalirinDH2PH2) | Molecule | Effect on full-length Trio (TrioGEFD1) activation of RhoG in the YEA system (Full length Trio (RhoG))
slightly inhibited | + + + + | – | – | AREGADGAICGYNLATLVMLGPSERVFCPLCEPCSSDIYELM [TRIPα, 42-amino acid peptide corresponding to the variable region of TRIAPα] | –
weakly inhibits | – | only weakly inhibited | +^2 | TRIAPα: aptamer of 154 amino acids: variable region of 42 amino acids inserted into the thioredoxin protein; tested as GST fusion (protein) MSDKIIHLTDDSFDTDVLKADGAILVDFWAEWCGPAREGADGAICGYNLATLVMLGPSERVFCPLCEPCSSDIYELMGPCKMIAPILDEIADEYQGKLTVAKLNIDQNPGTAPKYGIRGIPTLLLFKNGEVASATKVGALSKGQLKEFLDANLA | greatly enhanced TrioGEFD1 activation of RhoG
